Source: patent US20220257632A1, “MICROLUMENAL TARGETING OF CANCER CELLS” (Fred Hutchinson Cancer Research Center, priority 2019, published 2022)
One block for each molecule: values may come before it.

Key:
MMTV-PyMT clusters [1] = assay: Sulfo-NHS-biotin permeability of MMTV-PyMT clusters; type: cell-based, mouse; conditions: treatment 1 hr prior to biotin
Protocol: (§1) FIG. 4C is a quantification of epigen immunogold signal; n=268 gold particles. To determine if microlumenal junctions were permeable, clusters were incubated with cell-impermeable sulfo-NHS-biotin. 1 mM EGTA was used as a positive control to disrupt cell-cell junctions. Biotin leak was quantified by measuring streptavidin-FITC fluorescence signal within clusters. n=3 biological replicates. n=75 clusters per condition. P-values=Mann-Whitney tests (FIG. 4D) Immunofluorescence of epigen in clusters with and without 1 mM EGTA treatment to disrupt cell-cell junctions was measured. […] P-value=Mann-Whitney test.
The accumulation of epigen within microlumina implied a mechanism for preventing ligand diffusion and signal reduction. To characterize the permeability of tumor cell clusters, a technique used to differentially label apical and basal proteins was adapted. Clusters were treated with a cell impermeable biotin (sulfo-NHS-biotin, 0.4 KDa) which labels membrane surface proteins but is excluded from the cytosol. At baseline, biotin was excluded from cell-cell junction membranes within MMTV-PyMT clusters and predominantly labeled the cell-matrix junction membranes (FIG. 4D).
To test the permeability of tumor cell clusters, NHS-biotin was added to a final concentration of 0.8 mM in PBS for 30 minutes at 37° C. […]
(§2) Phalloidin staining and DAPI were used to define membrane and nuclear areas, respectively. Using the freehand line tool in FIJI software, lines along cell-matrix (outer membrane), cell-cell (intercellular) membranes, and intracellular (cytosolic) areas were drawn and median fluorescence intensity was measured for each channel. […] Then the polygon selection tool was used to measure FITC-streptavidin intensity in the cluster core (excluding the cell-matrix contacts) and intensity was normalized to the area measured. To assess biotin permeability in tumor vs. stroma areas, mean FITC-streptavidin signal was measured in FIJI in equally sized squares in adjacent pure tumor or pure stroma areas. […]

MMTV-PyMT clusters [2] = assay: Epigen immunofluorescence in MMTV-PyMT clusters after junction disruption; type: cell-based, mouse
Protocol: as §1, with “test. […]” for “test.”
as §2

MDA-MB-231 [3] = assay: Biotin permeability of MDA-MB-231 clusters; type: cell-based, human; conditions: MDA-MB-231, with or without treatment
HCC70 clusters [4] = assay: pHH3 immunofluorescence (mitotic cells) and cell death in HCC70 clusters; type: cell-based, human
MDA-MB-231 [5] = assay: Viable cell quantification of MDA-MB-231 after 6 days of IFNγ treatment; type: cell-based, human; conditions: MDA-MB-231, viable cells after 6 days of treatment
HCC70 clusters [6] = assay: TEM of HCC70 clusters with and without IFNγ; type: cell-based, human; conditions: 6 days, 3 ng/mL
Description: (§3) FIG. 7A is a qPCR measurement of EPGN expression in HCC70 clusters. n=3 biological replicates. P-values=unpaired t-tests. […] P-values=unpaired t-tests. FIG. 7C is a quantification of individual lung metastasis areas (lungs three weeks after tail vein injection of 200,000 Ctrl-kd or Epgn-kd HCC70 clustered cells). n (# of metastases): Ctrl-kd=299, Epgn-kd=87. n (# of mice): 7 per condition. Box plot=5-95%. P-value=Mann-Whitney test. […] Line=non-linear regression. Band=95% CI. n=3 biological replicates. P-value=extra sum-of-squares F test. […] P-value=Mann-Whitney test. FIG. 7F is a quantification of internal FITC-streptavidin intensity biotin leak-in assay of HCC70 clusters after 6 days of treatment with or without 3 ng/mL IFNγ). n=60 untreated clusters, 70 IFNγ treated clusters. n=3 biological replicates. P-value=Mann-Whitney test. FIG. 7G is a TEM of HCC70 clusters after 6 days with and without IFNγ treatment (3 ng/mL). MP=microvilli-like protrusions. J=cell-cell junctions. FIG. 7H is a qPCR of (left) RAB25 and (right) CLDN7 in HCC70 clusters after 0, 3, and 6 days with and without 3 ng/mL IFNγ treatment. n=3 biological replicates. P-value=unpaired t-test. FIGS. 7I and 7J: HCC70 single cells were aggregated for 24 hrs then treated with or without 2 ng/mL IFNγ treatment. […] 3 weeks later, lung metastases were scored by staining for the human-specific marker CD298. […]

HCC70 clusters [7] = assay: Biotin leak-in permeability assay of HCC70 clusters; type: cell-based, human; conditions: 6 days, 3 ng/mL
Description: as §3, with “replicates.” for “replicates. P-value=Mann-Whitney test. FIG. 7G is a TEM of HCC70 clusters after 6 days with and without IFNγ treatment (3 ng/mL). MP=microvilli-like protrusions. J=cell-cell junctions. FIG. 7H is a qPCR of (left) RAB25 and (right) CLDN7 in HCC70 clusters after 0, 3, and 6 days with and without 3 ng/mL IFNγ treatment. n=3 biological replicates. P-value=unpaired t-test. FIGS. 7I and 7J: HCC70 single cells were aggregated for 24 hrs then treated with or without 2 ng/mL IFNγ treatment.”
Phalloidin staining and DAPI were used to define membrane and nuclear areas, respectively. Using the freehand line tool in FIJI software, lines along cell-matrix (outer membrane), cell-cell (intercellular) membranes, and intracellular (cytosolic) areas were drawn and median fluorescence intensity was measured for each channel. […] To assess biotin permeability in tumor vs. stroma areas, mean FITC-streptavidin signal was measured in FIJI in equally sized squares in adjacent pure tumor or pure stroma areas. […]

[8] = tested on: HCC70 tumor cell clusters; assay: Viable cell quantification of HCC70 clusters after 6 days of IFNγ treatment; type: cell-based, human
Description: FIG. 7A is a qPCR measurement of EPGN expression in HCC70 clusters. n=3 biological replicates. P-values=unpaired t-tests. […] P-values=unpaired t-tests. FIG. 7C is a quantification of individual lung metastasis areas (lungs three weeks after tail vein injection of 200,000 Ctrl-kd or Epgn-kd HCC70 clustered cells). n (# of metastases): Ctrl-kd=299, Epgn-kd=87. n (# of mice): 7 per condition. Box plot=5-95%. P-value=Mann-Whitney test. […] Line=non-linear regression. Band=95% CI. n=3 biological replicates. P-value=extra sum-of-squares F test. […] P-value=Mann-Whitney test. FIG. 7F is a quantification of internal FITC-streptavidin intensity biotin leak-in assay of HCC70 clusters after 6 days of treatment with or without 3 ng/mL IFNγ). n=60 untreated clusters, 70 IFNγ treated clusters. n=3 biological replicates. P-value=Mann-Whitney test. FIG. 7G is a TEM of HCC70 clusters after 6 days with and without IFNγ treatment (3 ng/mL). MP=microvilli-like protrusions. J=cell-cell junctions. FIG. 7H is a qPCR of (left) RAB25 and (right) CLDN7 in HCC70 clusters after 0, 3, and 6 days with and without 3 ng/mL IFNγ treatment. n=3 biological replicates. P-value=unpaired t-test. FIGS. 7I and 7J: HCC70 single cells were aggregated for 24 hrs then treated with or without 2 ng/mL IFNγ treatment. After 6 days of treatment, clusters from each condition were injected by tail vein into NSG mice, with 200,000 viable clustered cells injected per animal. 3 weeks later, lung metastases were scored by staining for the human-specific marker CD298. Sizes of individual HCC70 metastases at 3 weeks after tail vein injection. n=8 mice/condition, 217 untreated metastases, 79 IFNγ pre-treated metastases. Box plot=5-95%. P-value=Mann-Whitney test (7I). […]
Human cell lines were cultured in complete media (DMEM or RPMI with penicillin/streptomycin+10% FBS) on tissue-culture treated plates, or in non-adherent plates supplemented with 2% Matrigel (v/v). […] Human organoids were cultured with 2% (v/v) or 100% growth factor reduced Matrigel (Corning) with HuMEC Ready media (Fisher 12752010).

HCC70 clusters [9] = assay: Tail vein lung metastasis assay of IFNγ pre-treated HCC70 clusters in NSG mice; type: in vivo; conditions: clusters pre-treated 6 days at 2 ng/mL, 3 weeks
Description: as §3, with “test.” for “test. FIG. 7G is a TEM of HCC70 clusters after 6 days with and without IFNγ treatment (3 ng/mL). MP=microvilli-like protrusions. J=cell-cell junctions. FIG. 7H is a qPCR of (left) RAB25 and (right) CLDN7 in HCC70 clusters after 0, 3, and 6 days with and without 3 ng/mL IFNγ treatment. n=3 biological replicates. P-value=unpaired t-test. FIGS. 7I and 7J: HCC70 single cells were aggregated for 24 hrs then treated with or without 2 ng/mL IFNγ treatment.”
For single cell vs. cluster experiments, mTomato-PyMT organoids were dissociated to single cells at day 0 using Accumax (20 minutes at 37° C.). […] DIC images were taken before injection and assessed to ensure similar number and size of clusters injected between conditions. 3 weeks after tail vein injection mice were euthanized and lungs imaged under a dissecting microscope for quantification of fluorescent (metastatic) area. […]

HCC70 clusters [10] = assay: qPCR of RAB25 and CLDN7 in HCC70 clusters; type: cell-based, human; conditions: 3 ng/mL
Description: as §3, with “t-test.” for “t-test. FIGS. 7I and 7J: HCC70 single cells were aggregated for 24 hrs then treated with or without 2 ng/mL IFNγ treatment.”
Human or mouse tumor cell clusters were pelleted and snap frozen in liquid nitrogen. […] Data were analyzed using the ΔΔCt method.

tumor cell clusters = assay: Cluster outgrowth on treatment with recombinant epigen; type: cell-based
[11] = HCC70 tumor cell clusters, viable cells after 6 days of treatment

Molecule: C/C1=C/C(=O)O[C@@H]2C[C@@H](CC[C@H](C)/C=C\C=C\CC1)O[C@@](O)([C@@H]1CSC(=O)N1)C2 [Latrunculin A]
biotin leak into clusters (MMTV-PyMT clusters [1]): allowed biotin to leak between clustered cells

Molecule: O=C(O)CN(CCOCCOCCN(CC(=O)O)CC(=O)O)CC(=O)O [calcium chelation, ethylene glycol-bis(β-aminoethyl ether)-N,N,N′,N′-tetraacetic acid]
epigen signal in clusters (immunofluorescence) (MMTV-PyMT clusters [2]): marked loss of epigen signal
biotin leak into clusters (MMTV-PyMT clusters [1]): biotin was able to leak into intercellular spaces

Molecule: C[C@@H]1Cc2c(Cl)cc(C(=O)N[C@@H](Cc3ccccc3)C(=O)O)c(O)c2C(=O)O1 [ochratoxin A]
biotin leak into clusters (MMTV-PyMT clusters [1]): allowed biotin to leak between clustered cells

IC50 (MDA-MB-231 [5]): 4.24 ng/mL
B1: interferon gamma (protein, UniProt P01579 24-161, looked up)
Interferon gamma: QDPYVKEAENLKKYFNAGHSDVADNGTLFLGILKNWKEESDRKIMQSQIVSFYFKLFKNFKDDQSIQKSVETIKEDMNVKFFNSNKKKRDDFEKLTNYSVTDLNVQRKAIHELIQVMAELSPAAKTGKRKRSQMLFRG
notes: a cytokine FDA-approved for use in patients
biotin permeability (MDA-MB-231 [3]): highly biotin-permeable in both the absence or presence of IFNγ treatment
cell death (HCC70 clusters [4]): not increased cell death
proliferation (% pHH3+ nuclei) (HCC70 clusters [4]; 6 days, 3 ng/mL): strong suppression of proliferation
IC75 (MDA-MB-231 [5]): 22.3 ng/mL
microlumenal spacing and electron-dense junctions by TEM (HCC70 clusters [6]): increased microlumenal spacing and decreased electron-dense junctions
intercellular permeability by biotin-leak assay (HCC70 clusters [7]): increased intercellular permeability
outgrowth ([8]; HCC70 clusters): markedly reduced outgrowth
IC50 [8, 11]: 0.58 ng/mL
IC75 [8, 11]: 0.97 ng/mL
number of lung metastases (HCC70 clusters [9]): fewer
size of lung metastases (HCC70 clusters [9]): significantly smaller
CLDN7 expression (qPCR) (HCC70 clusters [10]): significant reduction
RAB25 expression (qPCR) (HCC70 clusters [10]): significant reduction

B2: recombinant epigen: Recombinant epigen (R&D 1127-EP), growth factor and EGFR ligand (protein, UniProt Q6UW88 23-154, looked up)
Epigen: AAVTVTPPITAQQGNWTVNKTEADNIEGPIALKFSHLCLEDHNSYCINGACAFHHELEKAICRCFTGYTGERCEHLTLTSYAVDSYEKYIAIGIGVGLLLSGFLVIFYCYIRKRCLKLKSPYNVCSGERRPL
outgrowth (tumor cell clusters): induced outgrowth in a dose-dependent manner
